What all share (assay): ITC
In experiment [1] the target is Pwl4 (Magnaporthe oryzae).
The target of experiment [2] is Pwl2 without the signal peptide (residues 22 to 145) (Magnaporthe oryzae).
Experiment [3] addresses T1, HMA domain of OsHIPP43 (residues 26 to 101) (rice, UniProt Q8LJL3 26-101).
T1 construct: also called Os01g0507700
T1 sequence (looked up): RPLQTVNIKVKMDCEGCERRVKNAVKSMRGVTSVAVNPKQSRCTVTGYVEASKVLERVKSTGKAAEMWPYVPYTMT
The following applies: both partners purified.

This is an account of results in publication PMC11252911 (Proceedings of the National Academy of Sciences of the …, 2024).

As for “HMA domain of OsHIPP43 (residues 26 to 101) (from UniProt Q8LJL3 26-101) (domain or fragment)”, the dissociation constant Kd (usually a measure of binding affinity in units of concentration) in experiment [1] is 124 nM. Besides, in experiment [2], the dissociation constant (Kd) was found to be 191 nM and the dH was -67.6 kcal/mol.

B1: Pwl1 (natural protein)
chain: RKWTNKVIYNDKGEREGSISIRKGAEGDFNCGPGYPGGPDRMVRVHEDNGNIRGMPPGYRLGPDDKEDKRDNQYYSRNGYHVGDGPAEYQNHGGGQWGDGYYGPPGEITNQHGKRQGDQGCHIM
B1 registered a Kd in experiment [3] of 147 nM. In other words, the sub-micromolar range.
